Test results reported in the supplement of paper PMC9112550, “Optimization of the antimicrobial peptide Bac7 by deep mutational scanning” (BMC Biology, 2022).

Test system: Escherichia coli TOP10
Test: shrunken log2 fold change of peptide-encoding DNA abundance (4.5 h post-induction vs induction); higher = less antimicrobial activity (less host growth inhibition)
Details: time post-induction: 4.5 h; library: site-saturation at positions 5, 18, 19, 20
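Note: peptides expressed intracellularly from a pBAD plasmid library in pooled LB shake-flask culture, induced with 0.3% L-arabinose, DNA abundance read by NGS, three biological replicates, DESeq2 with apeglm shrinkage.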

## RRIRRRPPRLPRPRPRPRVTPRP
  shrunken log2 fold change: 0.766

## RRIRPRPPRLPRPRPRPQTSPRP
  shrunken log2 fold change: 0.163

## RRIRHRPPRLPRPRPRPFFMPRP
  shrunken log2 fold change: -0.564

## RRIRDRPPRLPRPRPRPSEQPRP
  shrunken log2 fold change: 0.0598

## RRIRIRPPRLPRPRPRPALWPRP
  shrunken log2 fold change: 0.199

## RRIRKRPPRLPRPRPRPKWIPRP
  shrunken log2 fold change: -0.111

## RRIRLRPPRLPRPRPRPWSTPRP
  shrunken log2 fold change: -0.137

## RRIRFRPPRLPRPRPRPSTNPRP
  shrunken log2 fold change: -0.147

## RRIRDRPPRLPRPRPRPNNTPRP
  shrunken log2 fold change: -0.747

## RRIRVRPPRLPRPRPRPNVGPRP
  shrunken log2 fold change: 0.00661

## RRIRGRPPRLPRPRPRPLWTPRP
  shrunken log2 fold change: 0.472

## RRIRRRPPRLPRPRPRPWEKPRP
  shrunken log2 fold change: 0.0936

## RRIRTRPPRLPRPRPRPADRPRP
  shrunken log2 fold change: -0.108

## RRIRNRPPRLPRPRPRPSTFPRP
  shrunken log2 fold change: -0.276

## RRIRQRPPRLPRPRPRPTIHPRP
  shrunken log2 fold change: -0.32

## RRIRHRPPRLPRPRPRPSPIPRP
  shrunken log2 fold change: -0.175

## RRIRCRPPRLPRPRPRPTSYPRP
  shrunken log2 fold change: -0.119

## RRIRCRPPRLPRPRPRPPSVPRP
  shrunken log2 fold change: 0.292

## RRIRHRPPRLPRPRPRPEYQPRP
  shrunken log2 fold change: -0.3

## RRIRLRPPRLPRPRPRPIYAPRP
  shrunken log2 fold change: 0.111

## RRIRIRPPRLPRPRPRPVHLPRP
  shrunken log2 fold change: -0.0973

## RRIRDRPPRLPRPRPRPGHVPRP
  shrunken log2 fold change: -0.0651

## RRIRMRPPRLPRPRPRPYYKPRP
  shrunken log2 fold change: -0.611

## RRIRIRPPRLPRPRPRPPAEPRP
  shrunken log2 fold change: 0.583

## RRIRQRPPRLPRPRPRPIWLPRP
  shrunken log2 fold change: 0.66

## RRIRYRPPRLPRPRPRPGCEPRP
  shrunken log2 fold change: 0.0164

## RRIRVRPPRLPRPRPRPWRAPRP
  shrunken log2 fold change: 0.414

## RRIRHRPPRLPRPRPRPKWIPRP
  shrunken log2 fold change: -0.779

## RRIRMRPPRLPRPRPRPRPKPRP
  shrunken log2 fold change: 1.07

## RRIRVRPPRLPRPRPRPPACPRP
  shrunken log2 fold change: 0.692

## RRIRERPPRLPRPRPRPRSPPRP
  shrunken log2 fold change: 0.0194

## RRIRDRPPRLPRPRPRPVMLPRP
  shrunken log2 fold change: -0.0376

## RRIRIRPPRLPRPRPRPSNPPRP
  shrunken log2 fold change: -0.74

## RRIRCRPPRLPRPRPRPTIAPRP
  shrunken log2 fold change: -0.211

## RRIRIRPPRLPRPRPRPEGEPRP
  shrunken log2 fold change: 0.134

## RRIRRRPPRLPRPRPRPNSFPRP
  shrunken log2 fold change: -0.29

## RRIRPRPPRLPRPRPRPIHDPRP
  shrunken log2 fold change: -0.0217

## RRIRWRPPRLPRPRPRPDPGPRP
  shrunken log2 fold change: -0.041

## RRIRQRPPRLPRPRPRPCTKPRP
  shrunken log2 fold change: 0.00259

## RRIRMRPPRLPRPRPRPGAGPRP
  shrunken log2 fold change: 1.22

## RRIRRRPPRLPRPRPRPQNIPRP
  shrunken log2 fold change: -0.33

## RRIRERPPRLPRPRPRPEVSPRP
  shrunken log2 fold change: 0.0769

## RRIRNRPPRLPRPRPRPSYIPRP
  shrunken log2 fold change: -0.637

## RRIRNRPPRLPRPRPRPAMIPRP
  shrunken log2 fold change: -0.254

## RRIRMRPPRLPRPRPRPIIFPRP
  shrunken log2 fold change: -0.0918

## RRIRPRPPRLPRPRPRPITPPRP
  shrunken log2 fold change: 0.0216

## RRIRIRPPRLPRPRPRPRQNPRP
  shrunken log2 fold change: -0.459

## RRIRDRPPRLPRPRPRPQHEPRP
  shrunken log2 fold change: -0.00197

## RRIRFRPPRLPRPRPRPGTVPRP
  shrunken log2 fold change: 0.0642

## RRIRDRPPRLPRPRPRPFPMPRP
  shrunken log2 fold change: -0.0572
